Reference: patent US20230348614A1 (VISTERRA, published 2023)
Positions count from the first letter of the chain named.

Columns and labels:
R155A = target: T1, R155A (Homo sapiens, UniProt P18827); assay: alanine scan: flow cytometry on HEK-293T cells expressing the mutant clone, 4320 Fab 0.50 ug/mL, normalised to WT CD138; Range %WT Binding 6; Normalized 4320 vs. BB4 39.8
T1 construct: clone of the alanine scanning library on HEK-293T cells; m17 with one substitution; also called CD138 R155A
T1 sequence (CD138 (SDC1), full length, point mutant, looked up): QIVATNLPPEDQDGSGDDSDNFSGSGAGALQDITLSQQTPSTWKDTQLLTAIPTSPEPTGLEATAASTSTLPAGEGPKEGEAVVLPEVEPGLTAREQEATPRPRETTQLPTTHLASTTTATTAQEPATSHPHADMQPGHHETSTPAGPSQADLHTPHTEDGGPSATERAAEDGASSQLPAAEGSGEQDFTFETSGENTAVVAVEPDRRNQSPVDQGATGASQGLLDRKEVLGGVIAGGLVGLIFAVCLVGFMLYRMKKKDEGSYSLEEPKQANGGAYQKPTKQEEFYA
Description: (§1) Serial dilutions of each MAb were tested for immunoreactivity against cells expressing target protein (WT) or vector alone. Validation of target expression and optimization of detection and binding of anti-CD138 antibodies both by flow cytometry was completed in replicate (N=4). The optimal screening concentration for each MAb was determined based on the raw signal values and signal-to-background calculations specifically optimized for each test article. Optimized parameters included the use of 10% goat serum as blocking reagent. Primary antibody staining was for 60 minutes at 25° C. Wash buffer include phosphate buffered saline (divalent metal ion free), pH 7.4. […] Secondary antibodies were diluted 1:400 and incubated for 30 minutes at 25° C.
(§2) Library screens of very-high-affinity mAbs can fail to yield critical residues for antibody binding due to deficiencies of such an assay to detect and differentiate critical vs. less critical binding based on affinity and quantification of cell binding. One common approach in the literature is the use of monovalent antibody derived fragments such as Fab usually weakens binding sufficiently to allow identification of critical residues for binding. […] Binding of each test Ab to each mutant clone in the alanine scanning library was determined, in duplicate, and likewise evaluated by flow cytometry.

G184A = target: T2, G184A (Homo sapiens, UniProt P18827); assay: alanine scan: flow cytometry on HEK-293T cells expressing the mutant clone, 4320 Fab 0.50 ug/mL, normalised to WT CD138; Range %WT Binding 17; Normalized 4320 vs. BB4 60.6
T2 construct: clone of the alanine scanning library on HEK-293T cells; m17 with one substitution; also called CD138 G184A
T2 sequence (CD138 (SDC1), full length, point mutant, looked up): T1 sequence (CD138 (SDC1), full length, point mutant, looked up) with A133R, G162A
Description: as §1, §2

G169A = target: T3, G169A (Homo sapiens, UniProt P18827); assay: alanine scan: flow cytometry on HEK-293T cells expressing the mutant clone, 4320 Fab 0.50 ug/mL, normalised to WT CD138; Range %WT Binding 2; Normalized 4320 vs. BB4 44.4
T3 construct: clone of the alanine scanning library on HEK-293T cells; m17 with one substitution; also called CD138 G169A
T3 sequence (CD138 (SDC1), full length, point mutant, looked up): T1 sequence (CD138 (SDC1), full length, point mutant, looked up) with A133R, G147A
Description: as §1, §2

L107A = target: T4, L107A (Homo sapiens, UniProt P18827); assay: alanine scan: flow cytometry on HEK-293T cells expressing the mutant clone, 4320 Fab 0.50 ug/mL, normalised to WT CD138; Range %WT Binding 13; Normalized 4320 vs. BB4 16.8
T4 construct: clone of the alanine scanning library on HEK-293T cells; m17 with one substitution; also called CD138 L107A
T4 sequence (CD138 (SDC1), full length, point mutant, looked up): T1 sequence (CD138 (SDC1), full length, point mutant, looked up) with L85A, A133R
Description: as §1, §2

V110A = target: T5, V110A (Homo sapiens, UniProt P18827); assay: alanine scan: flow cytometry on HEK-293T cells expressing the mutant clone, 4320 Fab 0.50 ug/mL, normalised to WT CD138; Range %WT Binding 2; Normalized 4320 vs. BB4 28.3
T5 construct: clone of the alanine scanning library on HEK-293T cells; m17 with one substitution; also called CD138 V110A
T5 sequence (CD138 (SDC1), full length, point mutant, looked up): T1 sequence (CD138 (SDC1), full length, point mutant, looked up) with V88A, A133R
Description: as §1, §2

S151A (Homo sapiens) = S151A (Homo sapiens) (UniProt P18827); assay: alanine scan: flow cytometry on HEK-293T cells expressing the mutant clone, 4320 Fab 0.50 ug/mL, normalised to WT CD138; Range %WT Binding 6; Normalized 4320 vs. BB4 24.5

B1: Fab fragment of mAb 4320 (Fab, V domains shown)
VH: QVQLVQSGAEVKKPGASVKVSCKASGYSFSSYYMHWVRQAPGQGLEWMGTIHPSDSTTNYNQKFQGRVTMTVDTSTRTAYMELSSLRSEDTAVYYCANFVYWGQGTTVTVSS
VL: DIVMTQTPLSLSVTPGQPASISCKSSKSLLYKDGKTYLNWFLQKPGQSPQLLIYVVSTRASGVPDRFSGSGSGTDFTLKISRVEAEDVGVYYCQQLVEYPYTFGQGTKLEIKR
modifications: N-terminal Q1 observed as pyroglutamic acid (PCA) in the 138-2-5 complex
notes: In the crystal structures heavy chain residues 1-213 were traced; also called Fab4320
R155A
  Mean %WT Binding: 12.3 %WT
G184A
  Mean %WT Binding: 60.1 %WT
G169A
  Mean %WT Binding: 13.2 %WT
L107A
  Mean %WT Binding: 18.2 %WT
V110A
  Mean %WT Binding: 21.9 %WT
S151A (Homo sapiens)
  Mean %WT Binding: 8.9 %WT
